Laboratory results reported in patent US5688918, “p53as protein and antibody therefor” (Health Research, Inc.).

Columns and labels:
[1] = target: T1, p53 (UniProt P02340 P02340:1-390); test: cell_activity
[2] = target: p53as (Mus musculus) (UniProt P02340); test: cell_activity
[3] = target: T1, p53; test: cell_activity; CAT reporter, mouse (10)1 cells; conditions: tags: none; pCMVp53r; chain copies: 4
Method: Spontaneously arising immortalized murine BALB/c embryo fibroblast (10) 1 is a p53 negative cell line which was transfected with 2 μg pSV-β-gal plasmid (Promegal), 3 μg 50-2 plasmid (Dr. Levine) which contains 2 copies of a 50 bp sequence corresponding to p53 binding site in muscle creatinine kinase promoter-enhancer upstream of a basic CAT reporter plasmid, and 5 μg pCMVp53as, pCMVp53r or pCMV vector control. Transfection was done using the calcium phosphate method. The cells were harvested 48 hors post transfection and lysed by three freeze-thaw cycles. The supernatant was assayed for CAT activity using diffusion.

[4] = CAT reporter, human Saos-2 cells
[5] = luciferase reporter, mouse (10)1 cells

T1 sequence (P02340 whole entry, one chain of several): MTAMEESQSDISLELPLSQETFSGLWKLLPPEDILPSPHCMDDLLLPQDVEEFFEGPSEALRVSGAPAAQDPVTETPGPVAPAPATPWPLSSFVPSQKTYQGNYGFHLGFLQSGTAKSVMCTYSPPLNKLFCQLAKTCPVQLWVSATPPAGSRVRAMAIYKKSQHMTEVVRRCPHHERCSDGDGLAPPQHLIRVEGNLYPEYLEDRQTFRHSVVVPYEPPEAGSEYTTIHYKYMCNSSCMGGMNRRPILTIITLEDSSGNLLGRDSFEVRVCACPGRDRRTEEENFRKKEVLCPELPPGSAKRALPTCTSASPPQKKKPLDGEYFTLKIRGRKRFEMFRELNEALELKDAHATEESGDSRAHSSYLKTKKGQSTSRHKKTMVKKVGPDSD
Sequence of p53as (Mus musculus) (P02340 1-364): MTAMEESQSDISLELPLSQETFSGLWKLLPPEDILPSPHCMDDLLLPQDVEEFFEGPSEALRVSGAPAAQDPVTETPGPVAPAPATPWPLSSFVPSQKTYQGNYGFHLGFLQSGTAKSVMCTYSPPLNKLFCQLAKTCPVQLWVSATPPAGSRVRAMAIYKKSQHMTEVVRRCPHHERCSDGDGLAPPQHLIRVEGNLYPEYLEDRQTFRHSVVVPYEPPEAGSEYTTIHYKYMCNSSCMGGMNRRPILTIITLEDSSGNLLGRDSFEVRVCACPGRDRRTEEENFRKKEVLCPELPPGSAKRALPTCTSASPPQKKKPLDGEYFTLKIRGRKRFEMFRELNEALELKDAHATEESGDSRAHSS

**Q.** Which activity (fold activation) [1, 4] does the source give for PG13 (13 repeats of p53 binding site) here?
**A.** 14

**Q.** What about the activity (fold activation) [2, 4] of the same molecule?
**A.** 9

**Q.** For WAF-1 promoter (WWP-1 luciferase), which activity (fold activation) [1, 5] is on record?
**A.** 15

**Q.** What about the activity (fold activation) [2, 5] of the same molecule?
**A.** 14

B1: muscle creatine kinase promoter-enhancer p53 site (50-2 reporter, 2 copies of 50 bp) (dsDNA)
DNA 1: TGGCAAGCCTATGACATGGCCGGGGCCTGCCTCTCTCTGCCTCTGACCCT
DNA 2: AGGGTCAGAGGCAGAGAGAGGCAGGCCCCGGCCATGTCATAGGCTTGCCA
**Q.** For B1, which activity [3] is on record?
**A.** 27 fold activation
